Reference: the supplement of paper PMC11780869

Test system: Bacillus subtilis
Experiment: cleaved RNA product abundance (RNA/gDNA barcode ratio) relative to median wild-type variant (ratio to wild type); higher = more accumulation of the downstream cleavage product
Conditions: cleavage site: cggR-gapA (positions -7 to +36 mutated)
Summary of the method: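 Cleaved product abundance for each construct is its RNA-to-gDNA barcode ratio, scaled to the median construct carrying the unmutated site. Cleaved RNA was isolated on a gel, reverse transcribed and barcode-sequenced, with genomic DNA barcodes sequenced alongside and UMIs collapsed. The reporters were truncated aprE or tetM mRNAs with barcoded, mutagenized RNase Y cleavage-site windows integrated into the B. subtilis chromosome, and cultures grew in LB at 37°C from OD600 0.0003 to 0.3.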

[1] = experiment (reporter, strain, medium): exp 2b: truncated aprE reporter, strain BJT200
[2] = experiment (reporter, strain, medium): exp 4a: truncated aprE reporter, strain BJT201 with 2% xylose (RNase J1 expressed)
[3] = experiment (reporter, strain, medium): exp 6: tetM reporter, strain 168

Sequence	cleaved RNA product abundance [1]	cleaved RNA product abundance [2]	cleaved RNA product abundance [3]
ACAGACGAAGGAGCCGCAAAGAAGTTATTAAGGGATGAATAATCCATCAATAGAAATATCTCTCACTTATTTAAA	0.0728	0.0602	–
ACAGACGAAGGAGCCGCAAAGAAGTTATTAAGGGATGAATAATCCATCAATATAAAAATCTCTCACTTATTTAAA	–	0.145	–
ACAGACGAAGGAGCCGCAAAGAAGTTATTAAGGGATGAATAATCCATCAATATAAATAACTCTCACTTATTTAAA	–	0.185	–
ACAGACGAAGGAGCCGCAAAGAAGTTATTAAGGGATGAATAATCCATCAATATAAATATCTCTCACTTATTTAAA	0.184	0.23	0.201
ACAGACGAAGGAGCCGCAAAGAAGTTATTAAGGGATGAATAATCCATCAATATAAATATTTCTCACTTATTTAAA	–	0.286	–
ACAGACGAAGGAGCCGCAAAGAAGTTATTAAGGGATGAATAATCCATCAATATAAATCTCTCTCACTTATTTAAA	–	0.17	–
ACAGACGAAGGAGCCGCAAAGAAGTTATTAAGGGATGAATAATCCATCAATATAAGTATCTCTCACTTATTTAAA	–	0.0774	–
ACAGACGAAGGAGCCGCAAAGAAGTTATTAAGGGATGAATAATCCATCAATATACATATCTCTCACTTATTTAAA	–	0.296	–
ACAGACGAAGGAGCCGCAAAGAAGTTATTAAGGGATGAATAATCCATCAATATATATATCTCTCACTTATTTAAA	0.19	0.191	–
ACAGACGAAGGAGCCGCAAAGAAGTTATTAAGGGATGAATAATCCATCAATGTAAATATCTCTCACTTATTTAAA	0.0896	0.0513	–
ACAGACGAAGGAGCCGCAAAGAAGTTATTAAGGGATGAATAATCCATCAATTTAAATATCTCTCACTTATTTAAA	–	0.13	–
ACAGACGAAGGAGCCGCAAAGAAGTTATTAAGGGATGAATAATCCATCATTATAAATATCTCTCACTTATTTAAA	0.158	–	–
ACAGACGAAGGAGCCGCAAAGAAGTTATTAAGGGATGAATAATCCATCCATATAAATATCTCTCACTTATTTAAA	–	0.222	–
ACAGACGAAGGAGCCGCAAAGAAGTTATTAAGGGATGAATAATCCATCGATATAAATATCTCTCACTTATTTAAA	–	0.112	–
ACAGACGAAGGAGCCGCAAAGAAGTTATTAAGGGATGAATAATCCATCTATATAAATATCTCTCACTTATTTAAA	0.191	–	–
ACAGACGAAGGAGCCGCAAAGAAGTTATTAAGGGATGAATAATCCATGAATATAAATATCTCTCACTTATTTAAA	–	0.18	–
ACAGACGAAGGAGCCGCAAAGAAGTTATTAAGGGATGAATAATCCATTAATATAAATATCTCTCACTTATTTAAA	0.766	0.688	0.984
ACAGACGAAGGAGCCGCAAAGAAGTTATTAAGGGATGAATAATCCCAAAATATAAATATCTCTCACTTATTTAAA	0.306	0.31	–
ACAGACGAAGGAGCCGCAAAGAAGTTATTAAGGGATGAATAATCCCACAAAATAAATATCTCTCACTTATTTAAA	–	0.256	–
ACAGACGAAGGAGCCGCAAAGAAGTTATTAAGGGATGAATAATCCCACAAGATAAATATCTCTCACTTATTTAAA	0.158	0.187	–

Sequence	cleaved RNA product abundance [1]	cleaved RNA product abundance [2]	cleaved RNA product abundance [3]
ACAGACGAAGGAGCCGCAAAGAAGTTATTAAGGGATGAATAATCCCACAATATAAAAATCTCTCACTTATTTAAA	–	0.25	–
ACAGACGAAGGAGCCGCAAAGAAGTTATTAAGGGATGAATAATCCCACAATATAAACATCTCTCACTTATTTAAA	–	0.277	–
ACAGACGAAGGAGCCGCAAAGAAGTTATTAAGGGATGAATAATCCCACAATATAAATAACTCTCACTTATTTAAA	0.231	–	–
ACAGACGAAGGAGCCGCAAAGAAGTTATTAAGGGATGAATAATCCCACAATATAAATATCTCTCACTTATTTAAA	0.204	0.279	0.271
ACAGACGAAGGAGCCGCAAAGAAGTTATTAAGGGATGAATAATCCCACAATATAAATATTTCTCACTTATTTAAA	–	0.386	–
ACAGACGAAGGAGCCGCAAAGAAGTTATTAAGGGATGAATAATCCCACAATATACATATCTCTCACTTATTTAAA	–	0.249	–
ACAGACGAAGGAGCCGCAAAGAAGTTATTAAGGGATGAATAATCCCACAATATATATATCTCTCACTTATTTAAA	–	0.303	–
ACAGACGAAGGAGCCGCAAAGAAGTTATTAAGGGATGAATAATCCCACAATATGAATATCTCTCACTTATTTAAA	0.107	0.0667	–
ACAGACGAAGGAGCCGCAAAGAAGTTATTAAGGGATGAATAATCCCACATTATAAATATCTCTCACTTATTTAAA	–	0.152	–
ACAGACGAAGGAGCCGCAAAGAAGTTATTAAGGGATGAATAATCCCACCATATAAATATCTCTCACTTATTTAAA	0.16	0.228	–
ACAGACGAAGGAGCCGCAAAGAAGTTATTAAGGGATGAATAATCCCACTATATAAATATCTCTCACTTATTTAAA	–	0.282	–
ACAGACGAAGGAGCCGCAAAGAAGTTATTAAGGGATGAATAATCCCAGAATATAAATATCTCTCACTTATTTAAA	–	0.361	–
ACAGACGAAGGAGCCGCAAAGAAGTTATTAAGGGATGAATAATCCCATAATATAAATATCTCTCACTTATTTAAA	–	0.715	–
ACAGACGAAGGAGCCGCAAAGAAGTTATTAAGGGATGAATAATCCCCAAATATAAATATCTCTCACTTATTTAAA	0.336	–	–
ACAGACGAAGGAGCCGCAAAGAAGTTATTAAGGGATGAATAATCCCCCAATATAAACATCTCTCACTTATTTAAA	–	0.291	–
ACAGACGAAGGAGCCGCAAAGAAGTTATTAAGGGATGAATAATCCCCCAATATAAATAACTCTCACTTATTTAAA	–	0.347	–
ACAGACGAAGGAGCCGCAAAGAAGTTATTAAGGGATGAATAATCCCCCAATATAAATATCTCTCACTTATTTAAA	0.285	0.36	0.457
ACAGACGAAGGAGCCGCAAAGAAGTTATTAAGGGATGAATAATCCCCCAATATACATATCTCTCACTTATTTAAA	–	0.446	–
ACAGACGAAGGAGCCGCAAAGAAGTTATTAAGGGATGAATAATCCCCCACTATAAATATCTCTCACTTATTTAAA	–	0.3	–
ACAGACGAAGGAGCCGCAAAGAAGTTATTAAGGGATGAATAATCCCCCTATATAAATATCTCTCACTTATTTAAA	–	0.151	–

Sequence	cleaved RNA product abundance [1]	cleaved RNA product abundance [2]	cleaved RNA product abundance [3]
ACAGACGAAGGAGCCGCAAAGAAGTTATTAAGGGATGAATAATCCCCTAATATAAATATCTCTCACTTATTTAAA	–	1.25	–
ACAGACGAAGGAGCCGCAAAGAAGTTATTAAGGGATGAATAATCCCCTCAATATAAATATCTCTCACTTATTTAA	0.181	0.364	–
ACAGACGAAGGAGCCGCAAAGAAGTTATTAAGGGATGAATAATCCCGAAATATAAATATCTCTCACTTATTTAAA	–	0.323	–
ACAGACGAAGGAGCCGCAAAGAAGTTATTAAGGGATGAATAATCCCGCAATATAAATATCTCTCACTTATTTAAA	0.194	0.244	0.252
ACAGACGAAGGAGCCGCAAAGAAGTTATTAAGGGATGAATAATCCCGCAATATAGATATCTCTCACTTATTTAAA	–	0.279	–
ACAGACGAAGGAGCCGCAAAGAAGTTATTAAGGGATGAATAATCCCGCAATATATATATCTCTCACTTATTTAAA	–	0.139	–
ACAGACGAAGGAGCCGCAAAGAAGTTATTAAGGGATGAATAATCCCGCATTATAAATATCTCTCACTTATTTAAA	–	0.101	–
ACAGACGAAGGAGCCGCAAAGAAGTTATTAAGGGATGAATAATCCCGTAATATAAATATCTCTCACTTATTTAAA	–	0.682	–
ACAGACGAAGGAGCCGCAAAGAAGTTATTAAGGGATGAATAATCCCTAAAAATAAATATCTCTCACTTATTTAAA	0.213	0.423	–
ACAGACGAAGGAGCCGCAAAGAAGTTATTAAGGGATGAATAATCCCTAAACATAAATATCTCTCACTTATTTAAA	–	0.323	–
ACAGACGAAGGAGCCGCAAAGAAGTTATTAAGGGATGAATAATCCCTAAAGATAAATATCTCTCACTTATTTAAA	0.259	–	–
ACAGACGAAGGAGCCGCAAAGAAGTTATTAAGGGATGAATAATCCCTAAATACAAATATCTCTCACTTATTTAAA	–	0.0687	–
ACAGACGAAGGAGCCGCAAAGAAGTTATTAAGGGATGAATAATCCCTAAATATAAAAATCTCTCACTTATTTAAA	0.46	0.622	–
ACAGACGAAGGAGCCGCAAAGAAGTTATTAAGGGATGAATAATCCCTAAATATAAACATCTCTCACTTATTTAAA	0.509	0.57	–
ACAGACGAAGGAGCCGCAAAGAAGTTATTAAGGGATGAATAATCCCTAAATATAAAGATCTCTCACTTATTTAAA	–	0.356	–
ACAGACGAAGGAGCCGCAAAGAAGTTATTAAGGGATGAATAATCCCTAAATATAAATAACTCTCACTTATTTAAA	–	0.442	–
ACAGACGAAGGAGCCGCAAAGAAGTTATTAAGGGATGAATAATCCCTAAATATAAATATCTCTCACTATTTAAAG	–	0.705	–
ACAGACGAAGGAGCCGCAAAGAAGTTATTAAGGGATGAATAATCCCTAAATATAAATATCTCTCACTTATTTAAA	0.622	0.72	0.772
ACAGACGAAGGAGCCGCAAAGAAGTTATTAAGGGATGAATAATCCCTAAATATAAATATTTCTCACTTATTTAAA	–	0.836	–
